Here are results for two molecules from patent US6034053A, “EGF-isoflavone conjugates for the prevention of restenosis” (Wayne Hughes Institute, priority 1998, dated 2000).

The test system of test [1] is vascular injury-induced neointimal hyperplasia. Put plainly: Murine restenosis model: photoactivated rose bengal vascular injury of the femoral artery, histomorphometric analysis. Format: in vivo, C57B1/6 mice. As to conditions: for Stenosis Index (Mean ± SE), neointima/media ratio in areas of maximum neointimal hyperplasia, 2 weeks: 2 weeks after injury, EGF-Gen or unconjugated EGF 0.1 mg/kg/dose twice daily for 14 days; for Effect on neointimal hyperplasia / neointima formation (in words): injured femoral arteries, EGF-Gen at less than 5% of the highest nontoxic dose. As to the method: Three to four week old C57 B1/6 male mice (Taconic, Germantown, N.Y.) were housed in micro-isolator cages on a 12-hour day/night cycle and kept for 2 weeks on the Paigen's cocoa butter diet of 15.8% fat, 1.25% cholesterol and 0.5% sodium cholate (Harlan Teklad, Madison, Wis., U.S.A.) to induce high plasma cholesterol levels similar to those of patients with lipid disorders.
Mice were injected with 300 microliters of a 3 mg/ml photoactivated rose bengal solution (Aldrich, Milwaukee, Wis.) in sterile PBS via the tail vein and anesthetized with ketamine/xylazine solution (100 mg ketamine/kg and 5 […]). Photoactivation of rose bengal using percutaneous irradiation with a green light source (300 Watt Xenon arced lamp equipped with a 550 nanometer broad band interference filter, Oriel Scientific, Stratford, Conn.) was performed on the shaved left leg by placing a 3.2 mm glass fiber optic light guide directly into the left femoral vein/artery for 10 minutes. The unirradiated right femoral artery served as an internal control.
Following irradiation the mice were treated for either 14 days or 28 days with intraperitoneal injections of (1) EGF-Gen conjugate or unconjugated EGF (modified EGF not conjugated to genistein) at a dose level of 0. I mg/kg/dose once in the morning and once in the evening; or (2) 2 mg/kg/dose of unconjugated genistein or derivatives of 6,7-dimethoxyquinizalone dissolved in 10% DMSO once per day; or (3) with PBS.
At the times indicated, the animals were euthanized with ketamine/xylazine and perfused with PBS followed by 4% phosphate buffered formalin. PBS and formalin were pumped through the left ventricle of the heart and allowed to exit through a 3 mm incision through the interior wall of the right ventricle. The brain, thymus, heart, lung, liver, pancreas, kidney, spleen, intestine, stomach, muscle, skin adrenal, and testes were collected for pathological evaluation. For histopathological studies, tissues were fixed in 10% neutral buffered formalin, dehydrated and embedded in paraffin by routine methods. Tissue blocks containing the femoral artery/vein were excised and post-fixed in 4% phosphate buffered formalin overnight and processed for hemotoxylin and eosin (H&E) or Masson's trichrome staining. Glass slides were affixed with 6 micron tissue sections and were stained with hematoxylin and eosin or Masson's trichrome. Serial sections were examined for areas of maximum neointimal hyperplasia for which the ratios of neointima/media (stenosis index) were determined. This was necessary to compensate for angular differences among specimens. A Pixera camera (Pixera Corp., Calif., USA) was used for image capture and the NIH image 1.61(Rasband et al., 1995, Microbeam Analysis Soc. J. 4:137-149) program was used for histo-morphometric analysis.
All numeric data are shown as mean±SEM. Statistical analysis between groups was performed by Mann-Whitney t-test or Fisher's exact test using Instat, GraphPad Software, San Diego, Calif. Cumulative percentage plots were analyzed using Wilcoxon statistics by Statview, Abacus Concepts, Inc., Berkeley, Calif.
Vascular injury was induced in C57B1/6 mice as described for Example 2. Following irradiation, the mice were treated for either 14 days or 28 days with intraperitoneal injections of (1) EGF-Gen or unconjugated EGF (modified EGF not conjugated to genistein) at a dose level of 0.1 mg/kg/dose, once in the morning and once in the evening. For 14 day treatment, this dose represents a cumulative total dose level of 2.8 mg/kg and 2% of the highest nontoxic cumulative dosed tested in toxicity studies (Uckun et al., 1998, Clinical Cancer Res 5:1125-1134). For 28 day treatment, this dose represents a cumulative total dose level of 5.6 mg/kg and 4% of the highest nontoxic cumulative dosed tested in toxicity studies. Control animals were injected with 2 mg/kg/dose of unconjugated genistein or derivatives of 6, 7-dimethoxyquinizalone dissolved in 10% DMSO once per day or with PBS. […]

For a further test, the system named is breast cancer cells. As to conditions: U.S. patent application Ser. No. 08/602,186; cited from earlier work.
The subject of test [2] is vascular smooth muscle cells (VSMC). Put plainly: Migration of VSMC through Matrigel matrix-coated Boyden chambers. It is filed as cell-based. The settings on record: for Effect on migration of VSMC (in words): EGF-gen 0.25, 0.5, 1 μg/ml or EGF 1 μg/ml, overnight. As to the method:
Migration of VSMC through Matrigel™ matrix was performed as described above for Example 4.
FIGS. 7A-7E show the morphological features of migrated VSMC incubated with 0.25 μg/ml (FIG. 7B), 0.5 μg/ml (FIG. 7C), or 1 μg/ml (FIG. 7D) of EGF-gen or with 1 μg/ml EFG (FIG. 7E), overnight. The control (FIG. 7A) was untreated. The cells were then trypsinized and processed for the migration assay using Matrigel™ matrix-coated boyden chambers. Cells migrated through the matrigel and were counted and expressed as % of controls. FIG. 7F is a bar graph showing the dose dependent inhibition of migration by EGF-Gen.

“Also recorded” adds a separate entry of the source.

B1: EGF-Gen: rhEGF linked via the photoreactive cross-linker Sulfo-SANPAH to genistein at its C7 hydroxyl group (conjugate, UniProt P01133 23-1207, looked up)
Pro-epidermal growth factor: PQHWSCPEGTLAGNGNSTCVGPAPFLIFSHGNSIFRIDTEGTNYEQLVVDAGVSVIMDFHYNEKRIYWVDLERQLLQRVFLNGSRQERVCNIEKNVSGMAINWINEEVIWSNQQEGIITVTDMKGNNSHILLSALKYPANVAVDPVERFIFWSSEVAGSLYRADLDGVGVKALLETSEKITAVSLDVLDKRLFWIQYNREGSNSLICSCDYDGGSVHISKHPTQHNLFAMSLFGDRIFYSTWKMKTIWIANKHTGKDMVRINLHSSFVPLGELKVVHPLAQPKAEDDTWEPEQKLCKLRKGNCSSTVCGQDLQSHLCMCAEGYALSRDRKYCEDVNECAFWNHGCTLGCKNTPGSYYCTCPVGFVLLPDGKRCHQLVSCPRNVSECSHDCVLTSEGPLCFCPEGSVLERDGKTCSGCSSPDNGGCSQLCVPLSPVSWECDCFPGYDLQLDEKSCAASGPQPFLLFANSQDIRHMHFDGTDYGTLLSQQMGMVYALDHDPVENKIYFAHTALKWIERANMDGSQRERLIEEGVDVPEGLAVDWIGRRFYWTDRGKSLIGRSDLNGKRSKIITKENISQPRGIAVHPMAKRLFWTDTGINPRIESSSLQGLGRLVIASSDLIWPSGITIDFLTDKLYWCDAKQSVIEMANLDGSKRRRLTQNDVGHPFAVAVFEDYVWFSDWAMPSVMRVNKRTGKDRVRLQGSMLKPSSLVVVHPLAKPGADPCLYQNGGCEHICKKRLGTAWCSCREGFMKASDGKTCLALDGHQLLAGGEVDLKNQVTPLDILSKTRVSEDNITESQHMLVAEIMVSDQDDCAPVGCSMYARCISEGEDATCQCLKGFAGDGKLCSDIDECEMGVPVCPPASSKCINTEGGYVCRCSEGYQGDGIHCLDIDECQLGEHSCGENASCTNTEGGYTCMCAGRLSEPGLICPDSTPPPHLREDDHHYSVRNSDSECPLSHDGYCLHDGVCMYIEALDKYACNCVVGYIGERCQYRDLKWWELRHAGHGQQQKVIVVAVCVVVLVMLLLLSLWGAHYYRTQKLLSKNPKNPYEESSRDVRSRRPADTEDGMSSCPQPWFVVIKEHQDLKNGGQPVAGEDGQAADGSMQPTSWRQEPQLCGMGTEQGCWIPVSSDKGSCPQVMERSFHMPSYGTQTLEGGVEKPHSLLSANPLWQQRALDPPHQMELTQ
modifications: Pro-epidermal growth factor genistein via Sulfo-SANPAH cross-linker
Turning to B1, in test [1] (i.p.), the “Stenosis Index (Mean ± SE), neointima/media ratio in areas of maximum neointimal hyperplasia, 2 weeks” value amounted to 0.0±0.0. In test [1] (i.p. 0.1 mg/kg/dose twice daily, 0.1 mg/kg), the “Mice with neointimal hyperplasia detected, 2 weeks after vascular injury” value is given as “none of the 5; also recorded: none of the five”. Also, the “Stenosis Index (Mean ± SE), neointima/media ratio in areas of maximum neointimal hyperplasia, 4 weeks” value in test [1] (4 weeks after injury, i.p., EGF-Gen 0.1 mg/kg/dose twice daily for 28 days, Gen or quinazolines 2 mg/kg/dose once per day in 10% DMSO) was determined as 0.59±0.16. The “Mice with neointima detected, 4 weeks post injury” value in test [1] (4 weeks, i.p. 0.1 mg/kg/dose twice daily) was “all of the 24”. Moreover, the “Effect on neointimal hyperplasia / neointima formation (in words)” value is “significantly reduced the magnitude of neointimal hyperplasia” in test [1]; “suppressed migration of myofibroblasts into the mural thrombus and the formation of neointima” in test [1] (listed as EGF-Genistein). For the same molecule, the “Potency of the conjugate relative to unconjugated Genistein” value with breast cancer cells is reported as 1000 fold. For the same molecule, in test [2], the “Effect on migration of VSMC (in words)” value is listed as “inhibited the migration of VSMC in a dose dependent fashion”. Further, the “Concentration giving complete cessation of in vitro migration of VSMC” value in test [2] (overnight incubation, then Matrigel migration assay) came to 1 µg/mL.

B2: EGF: unconjugated EGF (modified EGF not conjugated to genistein) (protein, UniProt P01133 23-1207, looked up)
Pro-epidermal growth factor: B1 Pro-epidermal growth factor
modifications: Pro-epidermal growth factor
In the case of B2, the “Stenosis Index (Mean ± SE), neointima/media ratio in areas of maximum neointimal hyperplasia, 2 weeks” value in test [1] (i.p.) is recorded as 0.63 ± 0.20; in test [1] (i.p., listed as unconjugated EGF) it was 0.63±0.20. The “Mice with neointimal hyperplasia detected, 2 weeks after vascular injury” value in test [1] (i.p. 0.1 mg/kg/dose twice daily) was 6 of 8. For the same molecule, in test [1], the “Effect on neointimal hyperplasia / neointima formation (in words)” value is “ineffective”. Further, the “Effect on migration of VSMC (in words)” value in test [2] is on record as “significantly promoted the migration”.
